The values that follow come from patent US20200405868A1 (ADEPTHERA, published 2020).

The target of one assay is T1, PTH receptor 1 (PTHR1) (UniProt Q03431 27-593, limits assumed).
T1 sequence (looked up): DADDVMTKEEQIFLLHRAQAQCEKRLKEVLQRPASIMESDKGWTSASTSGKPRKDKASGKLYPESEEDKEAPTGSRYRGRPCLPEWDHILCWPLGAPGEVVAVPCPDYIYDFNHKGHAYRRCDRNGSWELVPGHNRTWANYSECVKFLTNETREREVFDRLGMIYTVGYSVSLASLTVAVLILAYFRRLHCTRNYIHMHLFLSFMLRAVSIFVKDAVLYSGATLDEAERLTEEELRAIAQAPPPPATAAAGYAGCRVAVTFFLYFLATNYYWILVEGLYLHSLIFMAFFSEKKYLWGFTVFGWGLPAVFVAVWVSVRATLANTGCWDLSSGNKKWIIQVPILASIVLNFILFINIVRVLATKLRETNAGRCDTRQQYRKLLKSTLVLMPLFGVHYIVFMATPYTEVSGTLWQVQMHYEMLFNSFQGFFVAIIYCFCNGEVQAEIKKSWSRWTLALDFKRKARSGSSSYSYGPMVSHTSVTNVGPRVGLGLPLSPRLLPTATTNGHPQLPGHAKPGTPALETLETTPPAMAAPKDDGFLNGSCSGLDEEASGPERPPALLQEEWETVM
Put plainly: cell-based or functional assay.

Assay [1] has as its target melanocortin receptor 1 (MC1R) (UniProt Q01726 1-317, limits assumed). Description: cell-based or functional assay.

Where no end group is shown, it is not given here. The star is where a group is joined. Palmitoyl = CCCCCCCCCCCCCCCC(=O)*

melanocortin receptor 1 (MC1R), sequence (Q01726 whole entry): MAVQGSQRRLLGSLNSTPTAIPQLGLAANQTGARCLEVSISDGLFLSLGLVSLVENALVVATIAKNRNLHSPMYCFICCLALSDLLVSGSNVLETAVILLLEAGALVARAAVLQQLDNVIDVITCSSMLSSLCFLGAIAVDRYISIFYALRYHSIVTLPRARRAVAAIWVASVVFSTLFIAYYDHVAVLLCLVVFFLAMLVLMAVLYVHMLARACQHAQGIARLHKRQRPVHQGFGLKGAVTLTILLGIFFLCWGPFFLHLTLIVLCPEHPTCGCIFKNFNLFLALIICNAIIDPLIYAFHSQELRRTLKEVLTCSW

B1: SEQ ID NO: 232, Pal-HSYSEIQLMHNLGKHLNSMERVEWLRKKLQDVHNF, gel-forming PTH analog (peptide)
peptide: Palmitoyl-HSYSEIQLMHNLGKHLNSMERVEWLRKKLQDVHNF
For B1, the “EC50 (nM), PTHR1 cAMP agonistic assay” value with PTH receptor 1 (PTHR1) was determined as 14.1 nM.

B2: SEQ ID NO: 226, Pal-HSYSMEHFRWGKPVGKKRRPVKVYP, conjugated gel-forming ACTH1-24 analog (peptide)
peptide: Palmitoyl-HSYSMEHFRWGKPVGKKRRPVKVYP
Consider B2, for which the “EC50 (nM), MC1R cAMP agonistic assay” value in assay [1] came to 0.14 nM.
